Patent US20250049896A1 (Regeneron, published 2025)
Substitutions are numbered along the chain they refer to.

B1: 12808B (antibody, human IgG1, kappa, V domains shown)
VH: QLQLQESGPGLVKPSETLSLTCTVSGESISSNTYYWGWIRQPPGKGLEWIGSIDYSGTTNYNPSLKSRVTISVDTSRNHFSLRLRSVTAADTAVYYCAREWGNYGYYYGMDVWGQGTTVTVSS
VL: DIQMTQSPSSLSASVGDRVTINCRASQGIRNDLGWYQQKPGKAPKRLIYAASSLQSGVPLRFSGSGSGTEFTLTINNLQPEDFATYYCLSHNSYPWTFGQGTKVEIKR
notes: Tested as bivalent human IgG1 from CHO primary supernatant
B2: 12816B (antibody, human IgG1, kappa, V domains shown)
VH: QVQLVESGGGLVKPGGSLRLSCAASGFTFSDYYMNWIRQAPGKGLEWVSYISSSGTTIYYADSVKGRFTISRDNAKKSLYLEMNSLRAEDTAVYYCAREGYGNDYYYYGIDVWGQGTTVTVSS
VL: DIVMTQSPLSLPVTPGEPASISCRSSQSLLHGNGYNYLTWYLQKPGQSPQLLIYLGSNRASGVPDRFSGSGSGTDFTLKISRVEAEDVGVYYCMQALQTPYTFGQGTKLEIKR
notes: as for B1
B3: 69261 (antibody, human IgG1, kappa, V domains shown)
VH: B2 VH with D31V, T56S, K77N, E82Q, A97G, G102S, N103G, D104T, Y106S, I110M
VL: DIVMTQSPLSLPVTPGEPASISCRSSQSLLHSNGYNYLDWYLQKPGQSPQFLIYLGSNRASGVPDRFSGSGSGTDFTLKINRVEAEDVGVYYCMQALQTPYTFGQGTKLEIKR
notes: as for B1
B4: 12833B (antibody, human IgG1, kappa, V domains shown)
VH: QVQLVESGGGVVQPGRSLRLSCAASGFTFSSFGMHWVRQAPGKGLEWVIFISYDGSDKYYADSVKGRFAISRDSSKNTLYLQMNSLRAEDTAVYYCAKENGILTDSYGMDVWGQGTTVTVSS
VL: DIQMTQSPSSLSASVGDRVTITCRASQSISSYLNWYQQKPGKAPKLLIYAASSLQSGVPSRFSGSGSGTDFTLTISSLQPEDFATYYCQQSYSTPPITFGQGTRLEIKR
notes: as for B1
B5: 31874B (antibody, human IgG1, kappa, V domains shown)
VH: EVQLVESGGGLVQPGGSLRLSCAASGFAFSSYAMTWVRQAPGKGLEWVSVISGTGGSTYYADSVKGRFTISRDNSKNTLYLQMNSLRAEDTAVYYCAKGGAARRMEYFQYWGQGTLVTVSS
VL: DIQMTQSPSSLSASVGDRVTITCRASQGISNYLAWYQQKPGKVPNLLIYAASTLQSGVPSRFSGSGSGTDFTLTISSLQPEDVATYYCQKYNSAPLTFGGGTKVEIKR
notes: Tested as bivalent human IgG1 from CHO primary supernatant; also called H1H31874B; REGN17517
B6: 69331 (antibody, human IgG1, kappa, V domains shown)
VH: QVQLVESGGGVVQPGRSLRLSCIASGFTFSVYGIHWVRQAPGKGLEWMAVISHDGNIKHYADSVKGRFTISRDNSKNTLYLQINSLRTEDTAVYYCAKDTWNSLDTFDIWGQGTMVTVSS
VL: B5 VL with M4L, R24W, N31S, V43A, N45K, D70E, V83F, K90Q, Y91L, A94Y
notes: as for B1
B7: 69263 (antibody, human IgG1, kappa, V domains shown)
VH: EVQLVESGGGLVQPGRSLRLSCAVSGFTFDDYAMHWVRQAPGKGLEWVSGISWNSGTRGYADSVKGRFTISRDNAKNSLYLQMNSLRGEDTALYYCVKDITISPNYYGMDVWGQGTTVTVSS
VL: B5 VL with G28D, N31H, L33S, V43L, T72S, I75T, A94V
notes: as for B1
B8: 69340 (antibody, human IgG1, kappa, V domains shown)
VH: EVQLVESGGGLVQPGRSLRLSCAASGFTFDDKAMHWVRQVPGKGLEWISGISWNSGTIGYADSVKGRFIISRDNAKNSLYLQMNSLRAEDTALYYCAKDGDTSGWYWYGLDVWGQGTTVTVSS
VL: EIVLTQSPATLSLSPGERATLSCRASQSVSSYLAWYQQKPGQAPRLLIHDVSNRATGIPARFSGSGSGTDFTLTISSLEPEDFVVYYCQQRSDWPITFGQGTRLEIKR
notes: as for B1
B9: 69348 (antibody, human IgG1, kappa, V domains shown)
VH: QVQLVESGGGVVQPGRSLRLSCAASGFTFTTYGMHWVRQAPGKGLEWVAVIWYDGSNKYYGDSVKGRFTISRDNSKNTLYLQMNSLRVDDTAVYYCTRTHGYTRSSDGFDYWGQGTLVTVSS
VL: DIQMTQSPSSLSASVGDRVTITCRASQSIRNVLGWFQQKPGKAPQRLIYAASSLQSGVPSRFSGSGSGTEFTLTISSLQPEDFATYYCLQHNFYPLTFGGGTKVEIKR
notes: as for B1
B10: 12801B (antibody, human IgG1, kappa, V domains shown)
VH: EVQLLESGGALVQPGGSLRLSCAASGFTFTSYAMHWVRQAPGKGLEWVSSIRGSGGGTYSADSVKGRFTISRDNSRDTLYLQMNSVRAEDTAVYYCARSHDYGAFDFFDYWGQGTLVTVSS
VL: B9 VL with S28G, N31T, V32D, F36Y, Q45K, Q79R, Y86F, H91Y, F93S
notes: as for B1
B11: 69323 (antibody, human IgG1, kappa, V domains shown)
VH: EVQLVESGGGLVQPGRSLRLSCAASGFTFDDYAMHWVRQAPGKGLEWVSGISWNSGYIGYADSVKGRFTISRDNAENSLHLQMNSLRAEDTALYYCARGGSTLVRGVKGGYYGMDVWGQGTTVTVSS
VL: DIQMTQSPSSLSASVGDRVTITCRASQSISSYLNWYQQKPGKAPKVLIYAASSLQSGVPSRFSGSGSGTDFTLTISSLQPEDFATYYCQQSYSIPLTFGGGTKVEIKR
notes: as for B1
B12: 12802B (antibody, human IgG1, kappa, V domains shown)
VH: QVQLVESGGGLVKPGGSLRLSCAASGFTFSDYFMSWIRQAPGKGLEWVSYISSTGSTINYADSVKGRFTISRDNVKNSLYLQMTSLRVEDTAVYYCTRDNWNYEYWGQGTLVTVSS
VL: EIVMTQSPATLSVSPGERATLSCRASQSVSINLAWYQQKPGQAPRLLIFVASTRATGIPARFSGSGSGTEFTLTISSLQSEDFATYYCQQYDIWPYTFGQGTKLEIKR
notes: as for B1
B13: 12798B (antibody, human IgG1, kappa, V domains shown)
VH: EVQLVESGGDLVQPGRSLRLSCAASGFTFDDYAMHWVRQAPGKGLEWVSGISWNSATRVYADSVKGRFTISRDNAKNFLYLQMNSLRSEDTALYHCAKDMDISLGYYGLDVWGQGTTVTVSS
VL: not shown
notes: Tested as bivalent human IgG1 from CHO primary supernatant; also called H1H12798B; REGN17507
B14: 12799B (antibody, human IgG1, kappa, V domains shown)
VH: QITLKESGPTLVKPTQTLTLTCTFSGFSLSTSGVGVVWIRQPPGKALEWLALIYWNDHKRYSPSLGSRLTITKDTSKNQVVLTMTNMDPVDTATYYCAHYSGSYSYYYYGLDVWGQGTTVTVSS
VL: DIQMTQSPSSVSASVGDRVTITCRASQGIASWLAWYQQKPGKAPELLIYAASSLQGGVPSRFSGSGSGTDFTLTISSLQPEDFAIYYCQQANYFPWTFGQGTKVEIKR
notes: Tested as bivalent human IgG1 from CHO primary supernatant; also called H1H12799B; REGN17508

Columns and labels:
[1] = molecular target: T1, hmm.hTfRC (REGN2431), human transferrin receptor extracellular domain with hexahistidine-myc-myc tag (human, UniProt P02786 89-760); test: SPR (Biacore), mAb captured on anti-human Fc, 100 nM hTFR-mmh, 25 C
T1 construct: Monomeric recombinant protein, 79210 g/mol; also called hTFR-mmh; His-myc-myc-hTFRC ecto
T1 sequence (P02786 other isoform, or with tags, fused parts or gaps): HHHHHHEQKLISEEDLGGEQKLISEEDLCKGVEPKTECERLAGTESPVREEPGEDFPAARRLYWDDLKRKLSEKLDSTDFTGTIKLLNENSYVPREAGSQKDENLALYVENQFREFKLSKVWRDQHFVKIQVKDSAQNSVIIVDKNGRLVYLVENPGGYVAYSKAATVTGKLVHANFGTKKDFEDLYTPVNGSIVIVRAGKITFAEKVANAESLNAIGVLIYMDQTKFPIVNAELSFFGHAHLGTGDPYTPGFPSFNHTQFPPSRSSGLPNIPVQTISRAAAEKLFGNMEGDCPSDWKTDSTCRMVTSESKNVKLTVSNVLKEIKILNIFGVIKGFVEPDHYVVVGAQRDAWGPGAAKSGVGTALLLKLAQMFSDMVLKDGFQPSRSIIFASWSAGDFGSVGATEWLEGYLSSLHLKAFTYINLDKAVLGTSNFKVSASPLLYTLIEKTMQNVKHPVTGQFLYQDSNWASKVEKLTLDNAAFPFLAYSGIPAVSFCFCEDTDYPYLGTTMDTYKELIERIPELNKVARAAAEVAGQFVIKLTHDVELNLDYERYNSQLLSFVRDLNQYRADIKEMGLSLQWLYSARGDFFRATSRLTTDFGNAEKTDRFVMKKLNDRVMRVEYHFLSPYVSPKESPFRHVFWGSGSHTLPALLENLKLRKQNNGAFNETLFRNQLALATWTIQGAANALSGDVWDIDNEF
Experimental: (§1) Biacore binding kinetics assays were conducted for the interaction of 32 anti-human TfR IgG1 monoclonal antibodies from CHO supernatants with TfR reagents at 25° C.
(§2) Equilibrium dissociation constants (KD) for the interaction of anti-TfR monoclonal antibodies with human and fascicularis monkey TfR ecto domain recombinant proteins were determined using a real-time surface plasmon resonance (SPR) based Biacore S200 biosensor. All binding studies were performed in 10 mM HEPES, 150 mM NaCl, 3 mM EDTA, and 0.05% v/v surfactant Tween-20, pH 7.4 (HBS-EP) running buffer at […]. The Biacore CM5 sensor surface was first derivatized by amine coupling with a monoclonal mouse anti-human Fc antibody (REGN2567) followed by a step to capture anti-TfR monoclonal antibodies in CHO conditioned media. […] The dissociation of TfR bound to anti-TfR monoclonal antibodies was monitored for 3 minutes in HBS-EP running buffer. At the end of each cycle, the anti-TfR monoclonal antibodies capture surface was regenerated using a 12-sec injection of 20 mM H₃PO₄. The association rate (ka) and dissociation rate (kd) were determined by fitting the real-time binding sensorgrams to a 1:1 binding model with mass transport limitation using Scrubber 2.0 c software. The dissociation equilibrium constant (KD) and dissociative half-life (t½) were calculated from the kinetic rate constants as: […]

[2] = molecular target: T2, mf TFRC ecto-mmh (REGN2054), monomeric monkey (cyno) Tfrc ectodomain with C-terminal myc-myc-hexahistidine tag (monkey (cyno), Macaca fascicularis, UniProt H9EXL1 89-760); test: SPR (Biacore), mAb captured on anti-human Fc, 100 nM mfTfR-mmh, 25 C
T2 construct: range 89-760; also called mfTfR-mmh; mfTFR-mmh
T2 sequence (chain, as listed by the source): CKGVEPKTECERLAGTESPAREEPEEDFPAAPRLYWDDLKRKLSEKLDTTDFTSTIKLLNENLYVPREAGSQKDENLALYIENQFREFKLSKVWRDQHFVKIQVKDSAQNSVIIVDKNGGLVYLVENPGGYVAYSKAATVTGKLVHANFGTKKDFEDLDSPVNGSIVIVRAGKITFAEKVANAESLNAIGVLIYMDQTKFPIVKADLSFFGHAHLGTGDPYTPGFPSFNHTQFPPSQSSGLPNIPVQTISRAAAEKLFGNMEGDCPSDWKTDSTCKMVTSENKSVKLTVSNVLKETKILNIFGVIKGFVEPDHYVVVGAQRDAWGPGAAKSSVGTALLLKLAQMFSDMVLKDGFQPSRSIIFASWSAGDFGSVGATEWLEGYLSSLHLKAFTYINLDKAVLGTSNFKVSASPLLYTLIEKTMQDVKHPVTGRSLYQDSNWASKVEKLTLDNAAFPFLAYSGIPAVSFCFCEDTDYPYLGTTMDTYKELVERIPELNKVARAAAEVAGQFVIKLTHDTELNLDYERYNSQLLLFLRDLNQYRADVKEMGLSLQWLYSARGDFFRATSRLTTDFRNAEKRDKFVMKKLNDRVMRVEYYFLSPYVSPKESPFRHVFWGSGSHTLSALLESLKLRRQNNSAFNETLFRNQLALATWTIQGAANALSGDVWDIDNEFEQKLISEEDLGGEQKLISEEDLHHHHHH
Experimental: as §1, §2

Row | Binder | 100 nM Ag Bound (RU) [1] | Kd [1] | koff [1] | kon [1] | t½ [1] | 100 nM Ag Bound (RU) [2] | Kd [2] | koff [2] | kon [2] | t½ [2]
1 | B1 | 964 RU | 0.894 nM | 0.000107 s⁻¹ | 119000 M⁻¹ s⁻¹ | 108 min | 626 RU | 5.78 nM | 0.000454 s⁻¹ | 78500 M⁻¹ s⁻¹ | 25.5 min
2 | B2 | 357 RU | 5.8 nM | 0.000336 s⁻¹ | 57900 M⁻¹ s⁻¹ | 34.3 min | 315 RU | 7.44 nM | 0.000485 s⁻¹ | 65200 M⁻¹ s⁻¹ | 23.8 min
3 | B3 | 462 RU | 1.16 nM | 8.08e-05 s⁻¹ | 70000 M⁻¹ s⁻¹ | 143 min | 331 RU | 5.9 nM | 0.000403 s⁻¹ | 68300 M⁻¹ s⁻¹ | 28.7 min
4 | B4 | 409 RU | 3.51 nM | 0.000252 s⁻¹ | 72000 M⁻¹ s⁻¹ | 45.9 min | 346 RU | 7.02 nM | 0.000486 s⁻¹ | 69200 M⁻¹ s⁻¹ | 23.8 min
5 | B5 | 904 RU | 0.836 nM | 0.000115 s⁻¹ | 138000 M⁻¹ s⁻¹ | 100 min | 26 RU | 14.4 nM | 0.00996 s⁻¹ | 691000 M⁻¹ s⁻¹ | 1.2 min
6 | B6 | 87 RU | 41 nM | 0.00466 s⁻¹ | 114000 M⁻¹ s⁻¹ | 2.5 min | 26 RU | 20.5 nM | 0.01 s⁻¹ | 489000 M⁻¹ s⁻¹ | 1.2 min
7 | B7 | 150 RU | 6.5 nM | 0.00115 s⁻¹ | 177000 M⁻¹ s⁻¹ | 10 min | 77 RU | 19.2 nM | 0.00378 s⁻¹ | 197000 M⁻¹ s⁻¹ | 3.1 min
8 | B8 | 999 RU | 0.429 nM | 6.23e-05 s⁻¹ | 144000 M⁻¹ s⁻¹ | 185 min | 634 RU | 8.11 nM | 0.000723 s⁻¹ | 89200 M⁻¹ s⁻¹ | 16 min
9 | B9 | 680 RU | 1.62 nM | 0.000172 s⁻¹ | 106000 M⁻¹ s⁻¹ | 67.2 min | 433 RU | 4.8 nM | 0.000461 s⁻¹ | 96000 M⁻¹ s⁻¹ | 25.1 min
10 | B10 | 598 RU | 0.513 nM | 4.19e-05 s⁻¹ | 81900 M⁻¹ s⁻¹ | 276 min | 159 RU | 10.2 nM | 0.000653 s⁻¹ | 64000 M⁻¹ s⁻¹ | 17.7 min
11 | B11 | 465 RU | 2.45 nM | 0.00018 s⁻¹ | 73400 M⁻¹ s⁻¹ | 64.1 min | 24 RU | 19 nM | 0.0106 s⁻¹ | 558000 M⁻¹ s⁻¹ | 1.1 min
12 | B12 | 903 RU | 0.236 nM | 2.92e-05 s⁻¹ | 123000 M⁻¹ s⁻¹ | 395 min | 464 RU | 7.51 nM | 0.000529 s⁻¹ | 70500 M⁻¹ s⁻¹ | 21.8 min
13 | B13 | 1150 RU | 0.387 nM | 6.33e-05 s⁻¹ | 163000 M⁻¹ s⁻¹ | 183 min | 508 RU | 16.3 nM | 0.00129 s⁻¹ | 79000 M⁻¹ s⁻¹ | 9 min
14 | B14 | 699 RU | 0.851 nM | 6.62e-05 s⁻¹ | 77600 M⁻¹ s⁻¹ | 174 min | 651 RU | 1.88 nM | 0.000162 s⁻¹ | 86400 M⁻¹ s⁻¹ | 71.2 min
